Test results published in US20190275196A1, “Hemostatic Powders with Self-Assembling Peptide Hydrogels” (3-D Matrix, Ltd., priority 2016, published 2019).

Key:
Format in all cases: physicochemical
[1] = Congo Red assay of gel formation of peptide solutions with hemostatic powders; settings: for gel formation when mixed with hemostatic powder compared with pure peptide solution: Congo Red assay, visual
Description: A Congo Red assay was performed to determine gel formation of peptide solutions in a saline buffer solution (pH 7.4) when used with hemostatic powders.
Pure self-assembling peptide solution (PuraMatrix®), and peptide solution/hemostatic powders (Surgiflo®, Ethicon) mixtures were plated on a glass slide. After 30 seconds, 1% Congo Red solution in saline buffer solution (pH 7.4) was added around and on top of the gel aliquots and then the excess Congo Red solution was wiped off prior to examination. Visualization of gel formation determined the success or failure of gelation. […] In (1) and (2), self-assembling peptide solution (PuraMatrix®) before and after Congo red assay, respectively is shown. In (3) and (4), PuraMatrix® mixed with absorbable gelatin powder (Surgiflo®, Ethicon) at a ratio of 2 to 1 (v/w) before and after Congo red assay, respectively is shown. In (5) and (6), PuraMatrix® mixed with absorbable gelatin powder (Surgiflo®, Ethicon) at a ratio of 5 to 1 (v/w) before and after Congo red assay, respectively is shown.
Pure self-assembling peptide solution (IEIK13 1.3% at pH3.0) and peptide solution/hemostatic powders (Surgiflo®, Ethicon) mixture were plated on a glass slide. After 30 seconds, 1% Congo Red solution in saline buffer solution ([…]) was added around and on top of the gel aliquots and then the excess Congo Red solution was wiped off prior to examination. Visualization of gel formation determined the success or failure of gelation. […] In (1) and (2), self-assembling peptide solution (IEIK13 1.3% at pH 3.0) before and after Congo Red assay, respectively, is shown. In (3) and (4), IEIK13 1.3% at pH 3.0 mixed with absorbable gelatin powder, (Surgiflo®, Ethicon) at a ratio of 2 to 1 (v/w) before and after Congo Red assay, respectively, is shown. The interval of grids in FIG. 8 is 1 cm.

[2] = Apparent miscibility of gelatin powder with peptide solution or saline (syringe mixing); settings: various mixing ratios, mixed between two luer-lock syringes, plated on glass slide
Description: Gelatin powder (Surgiflo®) was separately mixed with saline and RADA16 2.5% solution (PuraMatrix®) to determine their apparent miscibility. Gelatin powders were placed in a luer-lock syringe and saline or RADA16 2.5% solution (PuraMatrix®) was placed in another luer-lock syringe. The syringes were connected to mix the contents of the two syringes by moving the plungers back and forth, for example, six times until the consistency was even. The mixtures were plated on a glass slide. FIG. 3 presents images of gelatin powder (Surgiflo®) and saline mixtures (upside images) and gelatin powder and RADA16 2.5% (PuraMatrix®) mixtures at various mixing ratios.
Gelatin powder (Surgiflo®) was mixed with IEIK13 1.3% (pH 3.0) solution to determine its apparent miscibility. Gelatin powders were placed in a luer-lock syringe and IEIK13 1.3% (pH 3.0) was placed in another luor-lock syringe. The syringes were connected to mix contents of the two syringes by moving the plungers back and forth, for example, six times until the consistency was even. The mixtures were plated on a glass slide. FIG. 9 presents images of gelatin powder (Surgiflo®) and IEIK13 mixtures at various mixing ratios.

[3] = Rheology (storage/loss modulus, frequency sweep) before and after DMEM treatment; settings: DMEM for 20 min; 25° C.; 1-10 rad/sec
Description: The rheological properties of gelatin powders with saline, self-assembling peptide, and gelatin powder with self-assembling peptide were evaluated using a rheometer (DHR-1, TA Instruments) with 20 mm plates. The samples were placed on the rheometer plate and the moduli were measured at 25° C. with the plates placed at a measuring geometry gap of 1000 μm. Measurements were performed after 2 minutes of relaxation time at 25° C. Frequency sweep tests were performed at 1 rad/sec˜10 red/sec of oscillation stress with strain at 0.01.
Pure RADA16 2.5% (PuraMatrix®), gelatin powder (Surgiflo®) mixed with saline at 2:1 w/v ratio, and gelatin powder mixed with RADA16 2.5% at various mixing ratios were all tested. These samples were treated with DMEM for 20 min after their frequency tests were performed without DMEM treatment. FIG. 4 presents the rheology of gelatin powders mixed with saline at a ratio of 2:1 w/v before and after DMEM treatment. FIG. 5 presents the rheology of RADA16 2.5% solution before and after DMEM treatment. FIG. 6 presents the rheology of gelatin powders mixed with RADA16 2.5% at a ratio of 1:5 w/v before and after DMEM treatment.

[4] = peptide solution mixed with gelatin powder (Surgiflo®) at a ratio of 2 to 1 (v/w), 1% Congo Red in saline buffer solution (pH 7.4)

Row | Substance | gel formation when mixed with hemostatic powder compared with pure peptide solution [1] | gel formation (gelation) [1, 4] | gel formation (gelation) ([1]; peptide solution mixed with gelatin powder (Surgiflo®) at a ratio of 5 to 1 (v/w), 1% Congo Red in saline buffer solution (pH 7.4)) | apparent miscibility with gelatin powder (Surgiflo®) [2] | apparent miscibility with gelatin powder (Surgiflo®) ([2]; listed as RADA16) | change of moduli (storage/loss) after DMEM treatment [3] | gel formation (gelation) ([1]; mixed with a hemostatic powder at a ratio of 5 to 1, expected, not tested) | apparent miscibility with gelatin powder (Surgiflo®) ([2]; listed as IEIK13)
1 | RADARADARADARADA [RADA16 2.5%] | gelled even when mixed with hemostatic powder to a similar extent as observed in pure peptide solution | capable of gelation | capable of gelation | capable of homogenous mixture | homogeneously mixed across various mixing ratios | increased | – | –
2 | IEIK13 1.3% (pH3.0): self-assembling peptide having the repeating sequence Ile-Glu-Ile-Lys (IEIK), 1.3% solution at pH 3.0 | gelled even when mixed with hemostatic powder to a similar extent as observed in pure peptide solution | capable of gelation | – | capable of homogenous mixture | – | – | capable of gelation | homogeneously mixed across various mixing ratios
